From US20200353078A1 (AstraZeneca / MedImmune, published 2020)
Residue numbers refer to the chain shown, from its start.

T1: Cynomolgus IL-33 Flag®His (cynomolgus monkey)
T1 construct: C-terminal FLAG 10xHis tag, E. coli; also called Mature Cynomolugus IL-33; cyno IL-33 FH
T1 chain: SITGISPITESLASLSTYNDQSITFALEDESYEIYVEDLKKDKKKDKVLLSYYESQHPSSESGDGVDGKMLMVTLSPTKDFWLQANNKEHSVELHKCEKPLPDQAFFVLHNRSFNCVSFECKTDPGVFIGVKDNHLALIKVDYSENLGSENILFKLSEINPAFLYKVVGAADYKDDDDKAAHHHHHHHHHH

T2: Human IL-33 Flag®His (human)
T2 construct: Mature IL-33 with C-terminal FLAG 10xHis tag, from E. coli; biotinylated via free cysteines where used biotinylated; also called Mature Human IL-33_FH; human IL-33 FH
T2 chain: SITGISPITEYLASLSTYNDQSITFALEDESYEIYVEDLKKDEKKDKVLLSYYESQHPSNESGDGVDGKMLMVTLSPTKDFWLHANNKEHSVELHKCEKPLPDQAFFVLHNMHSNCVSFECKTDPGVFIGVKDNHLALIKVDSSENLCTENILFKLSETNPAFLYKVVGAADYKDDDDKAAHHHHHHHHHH

T3: ST2 on human umbilical vein endothelial cells (human, UniProt Q01638 19-556)
T3 sequence (looked up): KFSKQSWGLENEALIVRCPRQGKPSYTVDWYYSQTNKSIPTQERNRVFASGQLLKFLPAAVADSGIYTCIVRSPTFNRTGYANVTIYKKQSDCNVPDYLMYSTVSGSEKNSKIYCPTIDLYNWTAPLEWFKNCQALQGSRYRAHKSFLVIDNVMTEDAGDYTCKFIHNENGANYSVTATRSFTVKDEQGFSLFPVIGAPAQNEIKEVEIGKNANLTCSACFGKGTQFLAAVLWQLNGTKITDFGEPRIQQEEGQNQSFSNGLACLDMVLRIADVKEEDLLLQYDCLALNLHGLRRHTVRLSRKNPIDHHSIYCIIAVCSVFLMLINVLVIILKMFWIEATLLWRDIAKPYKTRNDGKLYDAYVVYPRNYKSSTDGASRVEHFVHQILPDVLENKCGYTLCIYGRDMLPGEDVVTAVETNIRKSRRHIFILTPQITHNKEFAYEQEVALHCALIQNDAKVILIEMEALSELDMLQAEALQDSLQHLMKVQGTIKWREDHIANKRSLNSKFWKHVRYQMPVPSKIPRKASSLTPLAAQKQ

T4: His10/Avi Cyno IL-33 (cynomolgus monkey)
T4 construct: also called Cynomolgus 10His Avitag IL-33; biotinylated His Avi cynomolgus IL-33
T4 chain: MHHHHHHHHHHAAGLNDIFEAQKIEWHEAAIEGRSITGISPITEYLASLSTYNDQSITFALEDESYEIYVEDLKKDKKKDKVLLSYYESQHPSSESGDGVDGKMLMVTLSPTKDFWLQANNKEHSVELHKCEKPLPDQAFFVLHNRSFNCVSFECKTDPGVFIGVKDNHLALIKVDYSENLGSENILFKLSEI

B1: IL330126 IgG1 (antibody, V domains shown)
VH: EVQLVQSGAELKKPGASVKVSCKTSGYSFNTYGISWVRQAPGQGLEWMGWVSGDDGNINYAEKFQGRVAMTTDTSTTTAYMELWSLTSDDTAVYYCARVRRGSGWYKNYHYYMDVWGQGTMVTVSS
VL: QSVLTQPPSVSVSPGQTASVTCSGDRLGDKYASWYQQKPGQSPVLVIYQDRKRPSGIPERFSGSNSGNTATLTISGTQAMDEADYYCQAWDGSTALFGGGTKLTVL
notes: Human IgG1, lambda constant
B2: His10/Avi Human IL33-01 (ligand)
chain: T4 chain with K77E, S94N, Q118H, R146M, S147H, F148S, Y177S, G182C, S183T, I193T
B3: His10/Avi Human IL33-11 (ligand)
chain: MHHHHHHHHHHAAGLNDIFEAQKIEWHEAAIEGRSITGISPITEYLASLSTYNDQSITFALEDESYEIYVEDLKKDEKKDKVLLSYYESQHPSNESGDGVDGKMLMVTLSPTKDFWLHANNKEHSVELHKSEKPLPDQAFFVLHNMHSNCVSFECKTDPGVFIGVKDNHLALIKVDSSENLSTENILFKLSET
B4: 33_640027 scFv (scFv, V domains shown)
VH: EVQLLESGGDLVQPGGSLRLSCAASGFTFSSYAMSWVRQAPGKGLEWVSAIGGSGGSTYYADSVKGRFTISRDNSKNTLYLQMNSLRAEDTAVYYCARDLWMQLWGGGLRYPFGYWGQGTMVTVSS
VL: LPVLTQPPSVSVSPGQKASITCSGERIGDKYAAWYQQKPGQSPILVIYRDTKRPSGIPERFSGSNSGNTATLTISGTQDMDEADYYCQVWDSSTGVFGGGTKVTVL
notes: Single chain Fv
B5: 33_640050 scFv (scFv, V domains shown)
VH: B4 VH with D10G, G52S, A97P, D99H, L100K, W101F
VL: B4 VL with L1S, P2Y, K17T, I27M, I44V, R49Q, D79A
notes: Single chain Fv
B6: 33v20064 scFv (scFv, V domains shown)
VH: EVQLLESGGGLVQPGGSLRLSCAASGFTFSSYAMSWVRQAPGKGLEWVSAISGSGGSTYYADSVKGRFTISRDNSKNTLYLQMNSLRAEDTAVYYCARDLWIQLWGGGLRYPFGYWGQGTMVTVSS
VL: B4 VL with I27M, R49Q
notes: Single chain Fv
B7: IL330125 IgG1 (antibody, V domains shown)
VH: EVQLVQSGAEVKKPGASVTVSCKASGYSFTDYYIHWVRQAPGQGPEWMGWINPNSGVTDFAQKFLGRVTMTRDTSISTAYMELSRLTSDDTALYYCARVAFVYYDSSAFQYWGKGTLVTVSS
VL: LPVLTQPPSVSVSPGQTATITCSADKLGDKYAAWYQQKPGQSPVLVIYQDRKRPSGIPERFSGSNSGNTATLIISGTQAMDEADYYCQAWDSNTGLYVFGTGTKLTVL
notes: Human IgG1, lambda constant

Assays:
[1] = molecular target: T1, Cynomolgus IL-33 Flag®His; experiment: HTRF competition: purified IgG titrated against biotinylated human ST2-Fc for FLAG-His cynomolgus IL-33
Protocol: (§1) Activity of purified IgG preparations were determined by competing a dilution series of the purified IgG against biotinylated human or mouse ST2.Fc for binding to FLAG® His-tagged human, cynomolgus or mouse IL-33.
(§2) Purified or unpurified anti-IL-33 antibody samples were tested for inhibition of FLAG®-His tagged IL-33 binding ST2-Fc by adding 10 microlitres of each dilution of antibody test sample to a 384 well low volume assay plate (Costar 3676). Next, a solution containing 4 nM biotinylated human or mouse ST2-Fc and 20 nM streptavidin XL665 detection (Cisbio International, 611SAXLB) was prepared and 5 microlitres of the mix added to the assay plate. This was followed by the addition of 5 microlitres of a solution containing 1.2 nM FLAG®-His tagged human, cynomolgus or mouse IL-33 combined with 1.72 nM anti-FLAG® cryptate detection (Cisbio International, 61FG2KLB). All dilutions were performed in assay buffer comprised of Dulbeccos PBS (Invitrogen, 14190185) containing 0.8 M potassium fluoride (BDH 103444T) and 0.1% BSA (Sigma A9576). Assay plates were incubated for 2 hour at room temperature followed by 16 hour at 4° C. before reading time resolved fluorescence at 620 nm and 665 nm emission wavelengths using an EnVision plate reader (Perkin Elmer).

Human IL-33 Flag®His [2] = molecular target: T2, Human IL-33 Flag®His; experiment: HTRF competition, IgG titrated against biotinylated human ST2-Fc
Protocol: The ability of anti-IL-33 antibodies to inhibit the binding of FLAG®-His tagged IL-33 to the ST2 receptor was assessed in a biochemical HTRF® (Homogeneous Time-Resolved Fluorescence, Cisbio International) competition assay, the principles of which are described above.
as §1, §2

Human IL-33 Flag®His [3] = molecular target: T2, Human IL-33 Flag®His; experiment: cell-based or functional assay
[4] = molecular target: T3, ST2 on human umbilical vein endothelial …; experiment: cell-based or functional assay
His10/Avi Human IL33-01 [5] = molecular target: B2; experiment: HTRF epitope competition, scFv titrated; competitor DyLight labelled 33_640027 IgG
His10/Avi Cyno IL-33 [6] = molecular target: T4, His10/Avi Cyno IL-33; experiment: as above
His10/Avi Human IL33-11 [7] = molecular target: B3; experiment: as above
His10/Avi Human IL33-01 [8] = molecular target: B2; experiment: HTRF epitope competition, scFv titrated; competitor DyLight labelled 33v20064 IgG
Protocol: (§3) This was followed by the addition of 2.5 microlitres of a solution containing 0.8 nM biotinylated human IL-33-01 combined with 0.75 nM streptavidin cryptate detection (Cisbio International, 610SAKLB) for the human assay or a solution containing 4 nM biotinylated cynomolgus IL-33 combined with 1.5 nM streptavidin cryptate detection (Cisbio International, 610SAKLB) for the cynomolgus assay. All dilutions were performed in assay buffer containing 0.8 M potassium fluoride (VWR, 26820.236) and 0.1% bovine serum albumin (BSA, PAA, K05-013) in Dulbeccos PBS (Invitrogen, 14190185). Assay plates were incubated for 1 hour at room temperature and time resolved fluorescence was read at 620 nm and 665 nm emission wavelengths using an EnVision plate reader (Perkin Elmer). Data were analysed by calculating the 665/620 nm ratio followed by the % Delta F values for each sample. The 665/620 nm ratio was used to correct for sample interference using Equation 1. The % Delta F for each sample was then calculated using Equation 2. The negative control (non-specific binding) was defined by replacing biotinylated IL-33 combined with streptavidin cryptate detection with streptavidin cryptate detection only. The % Delta F values were subsequently used to calculate % specific binding as described in Equation 3.
(§4) Unique scFv were expressed again in bacteria and purified by affinity chromatography (as described in WO01/66754). Purified anti-IL-33 antibody samples were tested for potency of inhibition by competing a dilution series of the purified preparation against DyLight labelled 33v20064 IgG or DyLight labelled 33_640027 IgG for binding to biotinylated His Avi IL33-01, biotinylated His Avi IL33-11 or biotinylated His Avi cynomolgus IL-33. Methods are as described in the previous section.

His10/Avi Cyno IL-33 [9] = molecular target: T4, His10/Avi Cyno IL-33; experiment: as above
Protocol: as §3, §4

His10/Avi Human IL33-11 [10] = molecular target: B3; experiment: as above
Protocol: as §3, §4

| binding result [1] | IC50 (Human IL-33 Flag®His [2]) | IC50, human ST2 transfected HeLa NFkB luciferase reporter assay (Human IL-33 Flag®His [3]) | IC50 (nM) Untreated, HUVEC NFkB translocation assay [4] | IC50 (His10/Avi Human IL33-01 [5]) | IC50 (His10/Avi Cyno IL-33 [6]) | IC50 (His10/Avi Human IL33-11 [7]) | IC50 (His10/Avi Human IL33-01 [8]) | IC50 (His10/Avi Cyno IL-33 [9]) | IC50 (His10/Avi Human IL33-11 [10]) | Binder |
| --- | --- | --- | --- | --- | --- | --- | --- | --- | --- | --- |
| binds | 226 nM | 245 nM | – | – | – | – | – | – | – | B1 |
| – | – | – | 0.13 nM | – | – | – | – | – | – | B2 |
| – | – | – | 0.49 nM | – | – | – | – | – | – | B3 |
| – | – | – | – | 3.8 nM | 38 nM | 2.9 nM | 0.4 nM | 8.2 nM | 0.6 nM | B4 |
| – | – | – | – | 2.5 nM | 4.1 nM | 2.4 nM | 0.2 nM | 1.4 nM | 0.4 nM | B5 |
| – | – | – | – | 1500 nM | 3430 nM | 1470 nM | 12 nM | 103 nM | 26 nM | B6 |
| binds | 210 nM | 332 nM | – | – | – | – | – | – | – | B7 |
